# In paper PMC9903292, “A Reductive Aminase Switches to Imine Reductase Mode for a Bulky Amine Substrate” (ACS Catalysis, 2023):
# Substitutions are numbered along the chain they refer to. Names and notes keep the numbering of the source.
# B1: IR77 (wt-IR77) (Ensifer adhaerens) (protein)
# chain: MKPSISVLGTGRMGSALARALLQAGYRTVVWNRTSEKAEPLAALGATVAPTVRQAIDASGIVIVNVSDYAATSTLLRASDVTPGLRGKLIVELTSGTPEGARETSQWTAAHGARYLDGAILATPDFIGTDAGTILLSGALEPFAANEDVFRALGGNVQHIGTEPGLANALDSAVLALMWGALFGGLHAIAVCRAEEIDLGELGRQWAATAPVVEGLVADLIKRTSAGRFVSDAETLSSISPHYGAFQHLKELMEARRIDRTVVDGYDAIFRRAIASGHLHDDFAALSQFMGKAEQP
# notes: domain-swapped homodimer, two active sites at the interface
# B2: IR77 (wt-IR77) (Ensifer adhaerens; C192I) (protein)
# chain: B1 chain with C192I
# notes: as for B1
# B3: IR77 (wt-IR77) (Ensifer adhaerens; A119S) (protein)
# chain: B1 chain with A119S
# notes: as for B1
# B4: IR77 (wt-IR77) (Ensifer adhaerens; A208N) (protein)
# chain: B1 chain with A208N
# notes: as for B1
# B5: IR77 (wt-IR77) (Ensifer adhaerens; A208S) (protein)
# chain: B1 chain with A208S
# notes: as for B1
# Assays:
# IR77 (wt-IR77) = target: T1, IR77 (wt-IR77) (Ensifer adhaerens, UniProt A0A0L8BGL4, A208N); test: X-ray crystallography; format: binding; details: cofactor site at the dimer interface; P2_12_12_1, one open and one closed active site
# T1 construct: gene AC244_29830; domain-swapped homodimer, two active sites at the interface
# T1 sequence (A0A0L8BGL4 entry or part of it A208N): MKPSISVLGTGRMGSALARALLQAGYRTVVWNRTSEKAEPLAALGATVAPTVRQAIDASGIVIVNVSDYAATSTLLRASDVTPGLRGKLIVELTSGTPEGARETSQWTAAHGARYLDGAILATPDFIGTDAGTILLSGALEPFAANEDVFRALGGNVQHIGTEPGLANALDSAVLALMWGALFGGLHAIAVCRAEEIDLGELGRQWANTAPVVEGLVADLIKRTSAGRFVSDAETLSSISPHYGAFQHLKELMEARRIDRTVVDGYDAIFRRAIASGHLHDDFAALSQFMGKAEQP
# purified protein [1] = substrate: C1CCNC1; test: purified protein; details: NADPH
# purified protein [2] = substrate: c1ccc2c(c1)CNC2; test: purified protein; details: co-substrate 10 mM cyclohexanone, NADPH
# [3] = substrate: O=C1CCCCC1; test: UV spectrophotometry, NADPH oxidation; format: biochemical, Ensifer adhaerens; details: co-substrate pyrrolidine b at constant concentration
# [4] = substrate: O=C1CCCCC1; test: UV spectrophotometry, NADPH oxidation; format: biochemical, Ensifer adhaerens; details: co-substrate pyrrolidine b at constant concentration; remark: listed apart in the source
# Source text: UV spectrophotometry, NADPH oxidation on IR77 (wt-IR77)
# [5] = co-substrate 10 mM cyclohexanone, reductive amination
# [6] = imine probably formed in solution and then reduced by the enzyme
# [7] = reductive amination, 16 mM and kcat 0.25
# [8] = co-substrate cyclohexanone at constant concentration
# [9] = imine probably formed in solution
molecule,measurement,setting,value
NC(=O)c1ccc[n+]([C@@H]2O[C@H](COP(=O)(O)OP(=O)(O)OC[C@H]3O[C@@H](n4cnc5c(N)ncnc54)[C@H](OP(=O)(O)O)[C@@H]3O)[C@@H](O)[C@H]2O)c1 [NADP^+],X-ray crystallography,IR77 (wt-IR77),electron density for the cofactor NADP^+ was again clearly visible within the active sites
B1,Km,purified protein [1]; [5],17 mM
same,kcat,purified protein [1]; [5],0.12 s⁻¹
same,kcat/Km,purified protein [1]; [5],7.2 M⁻¹ s⁻¹
same,Km,purified protein [2]; [6],0.61 mM
same,kcat,purified protein [2]; [6],0.30 s⁻¹
same,Km,[3]; [7],15 mM
same,kcat,[3]; [7],0.24 s⁻¹
same,kcat/Km,[3]; [7],16 M⁻¹ s⁻¹
B2,Km,purified protein [1]; [8],9.0 mM
same,kcat,purified protein [1]; [8],0.1 s⁻¹
same,kcat/Km,purified protein [1]; [8],11 M⁻¹ s⁻¹
same,Km,[4],16 mM
same,kcat,[4],0.33 s⁻¹
same,kcat/Km,[4],21 M⁻¹ s⁻¹
B3,Km,purified protein [1]; [8],23 mM
same,kcat,purified protein [1]; [8],0.09 s⁻¹
same,kcat/Km,purified protein [1]; [8],4 M⁻¹ s⁻¹
same,Km,[4],16 mM
same,kcat,[4],0.25 s⁻¹
same,kcat/Km,[4],16 M⁻¹ s⁻¹
B4,Km,purified protein [2]; [9],0.94 mM
same,kcat,purified protein [2]; [9],0.28 s⁻¹
same,Km,[3],26 mM
same,kcat,[3],0.5 s⁻¹
same,kcat/Km,[3],20 M⁻¹ s⁻¹
B5,Km,purified protein [1]; [8],9.7 mM
same,kcat,purified protein [1]; [8],0.21 s⁻¹
same,kcat/Km,purified protein [1]; [8],22 M⁻¹ s⁻¹
same,Km,purified protein [2]; [9],0.60 mM
same,kcat,purified protein [2]; [9],0.23 s⁻¹
same,Km,[3]; kcat 0.44,9.6 mM
same,kcat,[3]; kcat 0.44,0.43 s⁻¹
same,kcat/Km,[3]; kcat 0.44,45 M⁻¹ s⁻¹
